Data reported in US20260035484A1 (LONGBIO PHARMA SUZHOU, published 2026).
Positions count from the first letter of the chain named.

B1: Humanized antibody SE2 (antibody, human IgG1, kappa, V domains shown)
VH: QVQLQESGPGLVKPSQTLSLTCTVSGYSITSDYAWNWIRQPPGNGLEWMGYISYSGSTRYNPSLKSRITISRDTSKNQFSLKLSSVTAADTAVYFCVYGSSQRFFDYWGQGTLVTVSS
VL: DILMTQSPDSLAVSLGERATINCKASQDVSIDVAWYQQKPGQPPKLLIYSASFRYAGVPDRFSGSGSGTDFTLTISSLQAEDVAVYYCQQHYSLFTFGSGTKLEIKR
notes: also called SE2 humanized antibody; humanized SE2
B2: Humanized antibody SE5 (antibody, human IgG1, kappa, V domains shown)
VH: B1 VH with M49L, S53N, S57T
VL: B1 VL with L3V, F53W, G66R, F71Y, S93N
notes: also called SE5 humanized antibody; humanized SE5
B3: chimeric antibody SE2 (mouse SE2 variable regions, human IgG1/kappa constant regions) (antibody, V domains shown)
VH: DVQLLESGPGLVKPSQSLSLTCTVTGYSITSDYAWNWIRQFPGNKLEWMGYISYSGSTRYNPSLKSRISISRDTSKNQFFLQLNSVTSEDTATYFCVYGSSQRFFDYWGQGTTLTVSS
VL: DILMTQSHKFMSTSIGDRVSITCKASQDVSIDVAWYHQKPGQSPKLLIYSASFRYAGVPDRFTGSGSGTDFTLTISSVQAEDLAVYYCQQHYSLFTFGSGTKLEIKR
notes: also called chimeric recombinant monoclonal antibody
B4: mouse-derived monoclonal antibody SE2 (antibody, V domains shown)
VH: B3 VH
VL: DILMTQSHKFMSTSIGDRVSITCKASQDVSIDVAWYHQKPGQSPKLLIYSASFRYAGVPDRFTGSGSGTDFTLTISSVQAEDLAVYYCQQHYSLFTFGSGTKLEIK
notes: the cloning primer was homologous to the mouse IgG1 heavy chain constant region; also called SE2 mouse hybridoma antibody; mouse-derived parent antibody of SE2
B5: chimeric antibody SE5 (mouse SE5 variable regions, human IgG1/kappa constant regions) (antibody, V domains shown)
VH: B3 VH with M49L, S53N, S57T
VL: B3 VL with L3V, I15V, H37Q, F53W, G66R, F71Y, S93N, K106Q
notes: as for B3
B6: mouse-derived monoclonal antibody SE5 (antibody, V domains shown)
VH: B3 VH with M49L, S53N, S57T
VL: B4 VL with L3V, I15V, H37Q, F53W, G66R, F71Y, S93N, K106Q
notes: the cloning primer was homologous to the mouse IgG1 heavy chain constant region; also called SE5 mouse hybridoma antibody; mouse-derived parent antibody of SE5

Columns and labels:
[1] = biological target: T1, biotin-labelled human IgE-Fc (human, UniProt P01854 104-427, biotin-labelled); experiment: blocking ELISA: inhibition of biotin-labelled human IgE-Fc binding to coated FcεRIα-Fc
T1 construct: also called recombinant human IgE-Fc protein; Fc region (CH2-4) protein of human IgE
T1 sequence (P01854 other isoform, or with tags, fused parts or gaps limits assumed): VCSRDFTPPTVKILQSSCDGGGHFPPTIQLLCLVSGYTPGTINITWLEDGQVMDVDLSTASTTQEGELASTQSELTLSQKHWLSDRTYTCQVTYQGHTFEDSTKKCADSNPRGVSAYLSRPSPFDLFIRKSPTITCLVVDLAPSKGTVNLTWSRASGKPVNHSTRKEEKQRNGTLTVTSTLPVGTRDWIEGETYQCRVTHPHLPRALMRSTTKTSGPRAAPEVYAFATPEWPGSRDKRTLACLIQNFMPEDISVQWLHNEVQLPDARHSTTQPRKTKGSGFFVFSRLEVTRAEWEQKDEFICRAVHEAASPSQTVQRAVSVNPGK
Description: (§1) The method specifically included diluting the recombinantly expressed human FcεRIα-Fc protein (with its amino acid sequence as set forth in SEQ ID NO: 51) with PBS to a final concentration of 1 μg/mL, coating the ELISA plates (purchased from Corning, Product code: 42592) at 100 μL per well, and keeping at 4° C. overnight. The next day, the coating solution was discarded. The wells were blocked with 2.5% skimmed milk dissolved in PBS for 1 hour and washed with PBS containing 0.05% Tween-20. […] After discarding the supernatant, the wells were washed with PBS containing 0.05% Tween-20 and detected by using HRP-labelled streptavidin (purchased from Sangon Biotech, Product code: D111054-0001).

[2] = biological target: T2, human IgE (abcam, Product code ab65866) (human, UniProt P01854-1 1-428); experiment: MSD-SET, solution equilibrium titration
T2 construct: also called antigen human IgE
T2 sequence (P01854 other isoform, or with tags, fused parts or gaps): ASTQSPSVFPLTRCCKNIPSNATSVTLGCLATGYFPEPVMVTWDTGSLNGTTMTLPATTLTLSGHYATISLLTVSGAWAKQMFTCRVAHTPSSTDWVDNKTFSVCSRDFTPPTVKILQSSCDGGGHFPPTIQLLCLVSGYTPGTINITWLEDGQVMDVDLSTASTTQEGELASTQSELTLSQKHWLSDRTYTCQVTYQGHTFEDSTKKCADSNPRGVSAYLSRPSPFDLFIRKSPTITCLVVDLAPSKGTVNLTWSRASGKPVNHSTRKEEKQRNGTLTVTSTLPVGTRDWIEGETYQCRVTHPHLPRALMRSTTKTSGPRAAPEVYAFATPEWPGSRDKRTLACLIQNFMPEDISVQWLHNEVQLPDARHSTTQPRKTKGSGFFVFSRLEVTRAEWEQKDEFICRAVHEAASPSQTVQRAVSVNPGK
Description: The solution equilibrium titration (SET) was performed in PBS+0.1% of IgG-free BSAbuffer (PBSF), where the antigen human IgE (purchased from: abcam, Product code: ab65866) was kept constant at 10-100 pM and incubated with 3-fold serial dilutions of humanized antibodies starting from 0.1-100 nM. […] 20 nM of antibodies diluted in PBS were coated onto standard binding MSD-ECL plates (purchased from MSD, Product code: L15XA-3) at 4° C. overnight. The MSD-ECL plates were blocked with 1% of Casein for 30 min while shaking at 700 rpm, and then washed with washing buffer (PBS+0.05% Tween 20) three times. The samples incubated with 2-fold serial dilutions of antigen human IgE and humanized antibodies were added into the MSD-ECL plates, incubated for 150 s while shaking at 700 rpm, and then washed once. […] 1× reading buffer T (purchased from MSD, Product code: R92TC-1) was added to read on an MSD Sector Imager instrument (Model: MESO QuickPlex SQ 120). In a Prism-GraphPad6 software, the percentage of free antigens was plotted as a function of titrated antibodies and fitted into a quadratic equation to extract the KD values.

[3] = biological target: T1, biotin-labelled human IgE-Fc; experiment: blocking ELISA: FcεRIα-Fc coated, biotin-labelled human IgE-Fc (100 ng/mL) premixed with the antibody, streptavidin-HRP; blocked ligand FcεRIα-Fc
Description: as §1

[4] = biological target: T1, biotin-labelled human IgE-Fc; experiment: blocking ELISA, inhibition ratio: FcεRIα-Fc coated, biotin-labelled human IgE-Fc (100 ng/mL) premixed with the antibody, streptavidin-HRP; blocked ligand FcεRIα-Fc
Description: as §1, with “[…],” for “μg/mL,”, “diluted with” for “detected by using”, “D111054-0001) at 1:1000 for detection. The inhibition ratio of different antibodies at different concentrations was calculated following the formula below: Inhibition ratio at antibody concentration of X (%)=(OD₄₅₀ readout at antibody concentration of 0-OD₄₅₀ readout at antibody concentration of X)/OD₄₅₀ readout at antibody concentration of 0×100.” for “D111054-0001).”

[5] = biological target: T1, biotin-labelled human IgE-Fc; experiment: blocking ELISA: FcεRIα-Fc coated, biotin-labelled human IgE-Fc (1 µg/mL) premixed with the antibody, streptavidin-HRP; blocked ligand FcεRIα-Fc
Description: The next day, the coating solution was discarded. The wells were blocked with 2.5% skimmed milk dissolved in PBS for 1 hour and washed with PBS containing 0.05% Tween-20. […] After discarding the supernatant, the wells were washed with PBS containing 0.05% Tween-20 and diluted with HRP-labelled streptavidin (purchased from Sangon Biotech, Product code: D111054-0001) at 1:1000 for detection.

Row | Binder | IC50 [1] | Kd [2] [pM] | IC50 (read off the curve) [3] [µg/mL] | IC50 (read off the curve) [4] [µg/mL] | IC50 (read off the curve) [5] [µg/mL]
1 | B1 | ~0.417 µg/mL | 10.9 | – | – | –
2 | B2 | ~266 pM | 10 | ~0.06 | – | –
3 | B3 | – | – | – | ~0.2 | –
4 | B4 | – | – | – | ~0.2 | ~0.3
5 | B5 | – | – | – | ~0.08 | –
6 | B6 | – | – | ~0.07 | ~0.08 | ~0.2
